# In IntAct's records for PubMed 24469400:
# B1: Syntaxin-4 (Rattus norvegicus (Rat)), Q08850 (parent)
# chain: MRDRTHELRQGDNISDDEDEVRVALVVHSGAARLSSPDDEFFQKVQTIRQTMAKLESKVRELEKQQVTILATPLPEESMKQGLQNLREEIKQLGREVRAQLKAIEPQKEEADENYNSVNTRMKKTQHGVLSQQFVELINKCNSMQSEYREKNVERIRRQLKITNAGMVSDEELEQMLDSGQSEVFVSNILKDTQVTRQALNEISARHSEIQQLERSIRELHEIFTFLATEVEMQGEMINRIEKNILSSADYVERGQEHVKIALENQKKARKKKVMIAICVSVTVLILAVIIGITITVG
# Variants of: B1
# Conditions: with vamp2_rat Vamp2, P63045
# Chain of vamp2_rat Vamp2, P63045 (P63045 whole entry): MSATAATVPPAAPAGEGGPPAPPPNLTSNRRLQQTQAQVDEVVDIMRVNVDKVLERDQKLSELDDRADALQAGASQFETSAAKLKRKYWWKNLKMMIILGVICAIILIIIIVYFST
row,effect of a mutation on the interaction,Variant
1,increasing interaction strength,L173A;E174A
